Assay results taken from patent publication US20250313631A1 (HUMMINGBIRD BIOSCIENCE PTE, published 2025).
Several values for one entry are separate records, joined by “and”; a condition that tells them apart may be missing. Equal values may be shown once. Each block holds one binder with its values, some of them ahead of it.

Tests used:
[1] = biological target: T1, mouse FcRn (His-tagged, Sino Biological CT009-H08H) (mouse, UniProt Q61559 22-297); test: BLI (Octet QK384): His-tagged mFcRn on anti-Penta-HIS biosensor, antibody as analyte, PBS pH 5.8, global 1:1 fit; experiment 2
T1 construct: also called mFcRn
T1 sequence (looked up): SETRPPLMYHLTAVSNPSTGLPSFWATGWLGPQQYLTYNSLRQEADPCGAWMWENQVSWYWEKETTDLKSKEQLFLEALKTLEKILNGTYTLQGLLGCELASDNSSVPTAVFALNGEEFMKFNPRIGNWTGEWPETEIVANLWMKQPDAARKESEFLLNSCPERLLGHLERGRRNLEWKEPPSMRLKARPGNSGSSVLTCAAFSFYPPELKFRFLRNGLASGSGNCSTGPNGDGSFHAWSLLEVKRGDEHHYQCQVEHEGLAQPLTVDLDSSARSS

[2] = biological target: T2, mouse FcγRIII (His-tagged, Sino Biological 50326-M08H) (mouse, UniProt P08508 31-215); test: BLI summary table, mFcgRIII, pH 7.2
T2 construct: also called mFcγRIII
T2 sequence (looked up): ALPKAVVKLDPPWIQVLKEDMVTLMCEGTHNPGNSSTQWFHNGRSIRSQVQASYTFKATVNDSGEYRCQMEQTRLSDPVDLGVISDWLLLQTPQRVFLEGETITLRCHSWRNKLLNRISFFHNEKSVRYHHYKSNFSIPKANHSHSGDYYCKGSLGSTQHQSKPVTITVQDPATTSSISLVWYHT

[3] = biological target: T1, mouse FcRn (His-tagged, Sino Biological …); test: BLI summary table, mFcRn, pH 5.8
[4] = biological target: T3, mouse FcγRIV (His-tagged, Sino Biological 50036-M08H) (mouse, UniProt A0A0B4J1G0 21-203); test: BLI (Octet QK384): His-tagged receptor on anti-Penta-HIS biosensor, antibody as analyte, PBS pH 7.2, global 1:1 fit; experiment 2
T3 construct: also called mFcγRIV; not shown: the histidine tag (and any linker) of the Sino Biological construct 50036-M08H
T3 sequence: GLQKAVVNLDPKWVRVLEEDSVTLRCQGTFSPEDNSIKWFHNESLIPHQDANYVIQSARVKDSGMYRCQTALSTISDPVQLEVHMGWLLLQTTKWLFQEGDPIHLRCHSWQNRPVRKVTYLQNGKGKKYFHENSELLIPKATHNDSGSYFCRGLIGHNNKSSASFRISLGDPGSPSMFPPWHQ

[5] = biological target: T3, mouse FcγRIV (His-tagged, Sino …); test: BLI summary table, mFcgRIV, pH 7.2
[6] = biological target: T3, mouse FcγRIV (His-tagged, Sino …); test: BLI summary table, mFcgRIV, pH 7.2; remark: listed apart in the source
[7] = biological target: T4, mouse FcγRIIb (His-tagged, Sino Biological 50030-M08H) (mouse, UniProt P08101 30-217); test: BLI (Octet QK384): His-tagged receptor on anti-Penta-HIS biosensor, antibody as analyte, PBS pH 7.2, global 1:1 fit; experiment 2
T4 construct: also called mFcγRIIb
T4 sequence (looked up): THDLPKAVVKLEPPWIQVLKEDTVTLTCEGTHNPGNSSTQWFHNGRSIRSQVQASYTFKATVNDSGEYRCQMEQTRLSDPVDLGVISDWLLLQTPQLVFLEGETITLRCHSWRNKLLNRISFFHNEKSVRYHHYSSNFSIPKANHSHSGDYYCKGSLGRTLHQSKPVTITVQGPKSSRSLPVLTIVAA

[8] = biological target: T1, mouse FcRn (His-tagged, Sino Biological …); test: BLI summary table, mFcRn, pH 5.8; remark: listed apart in the source
[9] = biological target: T2, mouse FcγRIII (His-tagged, Sino …); test: BLI (Octet QK384): His-tagged receptor on anti-Penta-HIS biosensor, antibody as analyte, PBS pH 7.2, global 1:1 fit; experiment 2
[10] = biological target: T4, mouse FcγRIIb (His-tagged, Sino …); test: BLI summary table, mFcgRIIb, pH 7.2
[11] = biological target: T4, mouse FcγRIIb (His-tagged, Sino …); test: BLI summary table, mFcgRIIb, pH 7.2; remark: listed apart in the source
[12] = biological target: T1, mouse FcRn (His-tagged, Sino Biological …); test: BLI summary table, mFcRn, pH 5.8; remark: listed apart in the source
[13] = biological target: T3, mouse FcγRIV (His-tagged, Sino …); test: BLI summary table, mFcgRIV, pH 7.2; remark: listed apart in the source
[14] = biological target: T2, mouse FcγRIII (His-tagged, Sino …); test: BLI summary table, mFcgRIII, pH 7.2; remark: listed apart in the source
[15] = biological target: T2, mouse FcγRIII (His-tagged, Sino …); test: BLI summary table, mFcgRIII, pH 7.2; remark: listed apart in the source
[16] = biological target: T4, mouse FcγRIIb (His-tagged, Sino …); test: BLI summary table, mFcgRIIb, pH 7.2; remark: listed apart in the source
[17] = biological target: T4, mouse FcγRIIb (His-tagged, Sino …); test: BLI (Octet QK384): His-tagged receptor on anti-Penta-HIS biosensor, antibody as analyte, PBS pH 7.2, global 1:1 fit
[18] = biological target: T1, mouse FcRn (His-tagged, Sino Biological …); test: BLI (Octet QK384): His-tagged mFcRn on anti-Penta-HIS biosensor, antibody as analyte, PBS pH 5.8, global 1:1 fit
[19] = biological target: T3, mouse FcγRIV (His-tagged, Sino …); test: BLI (Octet QK384): His-tagged receptor on anti-Penta-HIS biosensor, antibody as analyte, PBS pH 7.2
[20] = biological target: T2, mouse FcγRIII (His-tagged, Sino …); test: BLI (Octet QK384): His-tagged receptor on anti-Penta-HIS biosensor, antibody as analyte, PBS pH 7.2, global 1:1 fit

Kd [1]: 49.6 nM | koff [1]: 0.011 s⁻¹ | kon [1]: 220000 M⁻¹ s⁻¹ | kon [2]: 55000 M⁻¹ s⁻¹ and 67000 M⁻¹ s⁻¹ | Kd [3]: 31.5 nM and 49.5 nM | Kd [4]: 372 nM | koff [4]: 0.034 s⁻¹ | kon [4]: 92000 M⁻¹ s⁻¹ | koff [5]: 0.025 s⁻¹ and 0.034 s⁻¹ | kon [6]: 96000 M⁻¹ s⁻¹ and 92000 M⁻¹ s⁻¹ | Kd [7]: 2190 nM | koff [7]: 0.12 s⁻¹ | kon [7]: 55000 M⁻¹ s⁻¹ | koff [8]: 0.0059 s⁻¹ and 0.011 s⁻¹ | Kd [9]: 977 nM | koff [9]: 0.066 s⁻¹ | kon [9]: 67000 M⁻¹ s⁻¹ | Kd [10]: 876 nM and 2190 nM | kon [11]: 51000 M⁻¹ s⁻¹ and 55000 M⁻¹ s⁻¹ | kon [12]: 190000 M⁻¹ s⁻¹ and 220000 M⁻¹ s⁻¹ | Kd [13]: 258 nM and 372 nM | koff [14]: 0.044 s⁻¹ and 0.066 s⁻¹ | Kd [15]: 794 nM and 977 nM | koff [16]: 0.045 s⁻¹ and 0.12 s⁻¹
B1: 4M2-C12 mIgG2a (antibody)
heavy: EVKLVESGPGLVKPSQSLSLTCTVTGYSITSDYAWNWIRQFPGNKLEWMGYITYSGNISYNPSLRSRISITRDTSKNQFFLQLNSVTPEDTATYSCARSLYYPWYFDVWGAGTTVTVSSAKTTAPSVYPLAPVCGDTTGSSVTLGCLVKGYFPEPVTLTWNSGSLSSGVHTFPAVLQSDLYTLSSSVTVTSSTWPSQSITCNVAHPASSTKVDKKIEPRGPTIKPCPPCKCPAPNLLGGPSVFIFPPKIKDVLMISLSPIVTCVVVDVSEDDPDVQISWFVNNVEVHTAQTQTHREDYNSTLRVVSALPIQHQDWMSGKEFKCKVNNKDLPAPIERTISKPKGSVRAPQVYVLPPPEEEMTKKQVTLTCMVTDFMPEDIYVEWTNNGKTELNYKNTEPVLDSDGSYFMYSKLRVEKKNWVERNSYSCSVVHEGLHNHHTTKSFSRTPGK
light: DIVITQTPAILSTSPGEKVTMTCRASSSVGYIHWYQQKPGSSPKPWIYATSNLASGVPARFSGSGSGTSNSLTITRVEAEDAATYYCQQWSSYPPITFGGGTKLEVKRADAAPTVSIFPPSSEQLTSGGASVVCFLNNFYPKDINVKWKIDGSERQNGVLNSWTDQDSKDSTYSMSSTLTLTKDEYERHNSYTCEATHKTSTSPIVKSFNRNEC
notes: mouse IgG2a format, made in CHO cells; also called 4M2-C12 IgG2a

kon [2]: 270000 M⁻¹ s⁻¹ | Kd [3]: 93.9 nM | Kd [17]: 1300 nM | koff [17]: 0.117 s⁻¹ | kon [17]: 90000 M⁻¹ s⁻¹ | koff [8]: 0.016 s⁻¹ | Kd [10]: 1300 nM | kon [11]: 90000 M⁻¹ s⁻¹ | kon [12]: 170000 M⁻¹ s⁻¹ | Kd [18]: 93.9 nM | koff [18]: 0.016 s⁻¹ | kon [18]: 170000 M⁻¹ s⁻¹ | binding result [19]: no binding | koff [14]: 0.125 s⁻¹ | Kd [15]: 455 nM | koff [16]: 0.117 s⁻¹ | Kd [20]: 455 nM | koff [20]: 0.125 s⁻¹ | kon [20]: 270000 M⁻¹ s⁻¹
B2: 4M2-C12 mIgG1 (antibody)
heavy chain: EVKLVESGPGLVKPSQSLSLTCTVTGYSITSDYAWNWIRQFPGNKLEWMGYITYSGNISYNPSLRSRISITRDTSKNQFFLQLNSVTPEDTATYSCARSLYYPWYFDVWGAGTTVTVSSAKTTPPSVYPLAPGSAAQTNSMVTLGCLVKGYFPEPVTVTWNSGSLSSGVHTFPAVLQSDLYTLSSSVTVPSSTWPSETVTCNVAHPASSTKVDKKIVPRDCGCKPCICTVPEVSSVFIFPPKPKDVLTITLTPKVTCVVVDISKDDPEVQFSWFVDDVEVHTAQTQPREEQFNSTFRSVSELPIMHQDWLNGKEFKCRVNSAAFPAPIEKTISKTKGRPKAPQVYTIPPPKEQMAKDKVSLTCMITDFFPEDITVEWQWNGQPAENYKNTQPIMNTNGSYFVYSKLNVQKSNWEAGNTFTCSVLHEGLHNHHTEKSLSHSPGK
light chain: DIVITQTPAILSTSPGEKVTMTCRASSSVGYIHWYQQKPGSSPKPWIYATSNLASGVPARFSGSGSGTSNSLTITRVEAEDAATYYCQQWSSYPPITFGGGTKLEVKRADAAPTVSIFPPSSEQLTSGGASVVCFLNNFYPKDINVKWKIDGSERQNGVLNSWTDQDSKDSTYSMSSTLTLTKDEYERHNSYTCEATHKTSTSPIVKSFNRNEC
